How the values were obtained:
[1] = biological target: human lysosomal α-L-fucosidase (FucA1) (human) (UniProt P04066); assay: cryo-EM structure; single-particle cryo-EM, 200 kV Glacios, D2 symmetry imposed; unliganded FucA1 at 2 mg/mL, and FucA1 at 1.5 mg/mL with 1 mM deoxyfuconojirimycin in 60 mM phosphate citrate pH 4.5
[2] = biological target: human lysosomal α-L-fucosidase (FucA1) (human) (UniProt P04066); assay: SEC-MALS; SEC-MALLS, Superdex S200 10/300, 20 mM HEPES pH 7.4, 200 mM NaCl, room temperature (20 ± 2°C), 100 μL injected at 0.8 mg/mL

human lysosomal α-L-fucosidase (FucA1) (from UniProt P04066 32-466) (enzyme)
stoichiometry N [1]: 4 | stoichiometry N [2]: 4

— PMC9548408
